Measured values as given in patent US20200377556A1 (ABERA BIOSCIENCE, published 2020).

B1: GFPnanobody-SpyCatcher (VHH)
VHH: QLVESGGALVQPGGSLRLSCAASGFPVNRYSMRWYRQAPGKEREWVAGMSSAGDRSSYEDSVKGRFTISRDDARNTVYLQMNSLKPEDTAVYYCNVNVGFEYWGQGTQVTVSS
notes: also called GFPnb-SpC; GFPnanobody-SpC
B2: GFPnanobody-SpC_EQ (VHH)
VHH: B1 VHH
notes: also called GFPnb-SpC EQ; GFPnb fused to SpyCatcher E77Q mutant

Tests used:
[1] = molecular target: T1, HbpD(Δd1)-SpT (Escherichia coli, UniProt O88093 53-1377); test: covalent Spy-ligation to S. Typhimurium cells, SDS-PAGE/Coomassie
T1 construct: also called HbpD(Δd1)-SpyTag; Hbp(Δd1)-SpT

[2] = molecular target: T1, HbpD(Δd1)-SpT; test: SDS-PAGE/Coomassie of S. Typhimurium cells displaying HbpD(Δd1)-SpT incubated with GFPnb-SpC EQ

Row | Binder | binding result [1] | binding result [2]
1 | B1 | binds | –
2 | B2 | – | no binding (tested: 3 µM)
